Assay results: US12708677B2, “Contrast agents, methods for preparing contrast agents, and methods of imaging” (Georgia State University Research Foundation, Inc., priority 2008, dated 2026)
Values joined by “and” are separate entries in the source; they are usually repeats but may differ in a detail not shown here. Identical values can stand only once.

Experiments:
[1] = Water coordination number by terbium life time luminescence; format: physicochemical
Experimental: Measurement of Water Coordination Number by Terbium Life Time Luminescence. The number of water ligands coordinated to Gd^3+-CA1.CD2 complex was determined by measuring Tb^3+ luminescence decay in H2O or D2O. Tb^3+ excited state lifetime was measured using a fluorescence spectrophotometer (Photon Technology International, Inc.) with a 10 mm path length quartz cell at 22° ° C. Following excitation at 265 nm with a XenoFlash (Photon Technology International, Inc.), Tb^3+ emission was monitored at 545 nm in a time series experiment in both H2O and D2O systems. Luminescence decay lifetime was obtained by fitting the acquired data with a mono-exponential decay function. H2O in CA1.CD2 solution was replaced with D2O by lypholization and re-dissolved in D2O at least three times. A standard curve correlating the Δkobs with water number under our experimental conditions was established by using well-characterized chelators, such as EDTA (q=3), DTPA (q=1), NTA (q=5), and Aquo Tb^3+ (q=9) solution with R^2=0.997.^26,27 Water number coordinated to Tb^3+-CA1.CD2 complex was then obtained by fitting the acquired Δkobs value to the standard curve.
The numbers of water ligands coordinated to Gd^3+-CA1.CD2 and variants complex were determined by measuring Tb^3+ luminescence decay in H2O or D2O (Yang et al., 2008). Tb^3+ excited state lifetime was measured using a fluorescence spectrophotometer (Photon Technology International, Inc.) with a 10 mm path length quartz cell at 22° C. Following excitation at 265 nm with a XenoFlash (Photon Technology International, Inc.), Tb^3+ emission was monitored at 545 nm in a time series experiment in both H2O and D2O systems. Luminescence decay lifetime was obtained by fitting the acquired data with a mono-exponential decay function. H2O in CA1.CD2 solution was replaced with D2O by lypholization and re-dissolved in D2O at least three times. A standard curve correlating the Δkobs with water number under our experimental conditions was established by using well-characterized chelators, such as EDTA (q=3). DTPA (q=1), NTA (q=5), and Aquo Tb^3+ (q=9) solation with R^2=0.997.^26, 27 Water number coordinated to Tb^+-CA1.CD2 complex was then obtained by fitting the acquired Δkobs value to the standard curve.

rabbits = assay: Immunogenicity in rabbits, ELISA and immunoblotting; format: in vivo, rabbit
Experimental: FIG. 2.7: Illustrates ELISA (left) or western blot (right) analyses of antibody produced in rabbit serum after i.p. injection of […] of protein CA1.CD2 or PEGylated CA1.CD2 (PEGCA1.CD2). In (left), Pre is the serum from pre-bleeding before antigen injection. CA1.CD2 was mixed with adjuvant (CA1.CD2+Ad) or with buffer saline (CA1.CD2+Sal) before injection. PabCD2 is the anti-serum from rabbits produced by a commercial source use CD2 as antigen. The open bars are the first bleed after first injection. The gray bars are the second bleed after second injection. The rabbit blood was taken 3 weeks after each injection. The error bars are standard deviations of four measurements. In (right), Western blots were performed with anti-serum (1st bleed) from rabbits that were injected; CA1.CD2 mixed with buffered saline (left panel, CA1.CD2+Sal), CA1.CD2 mixed with adjuvant (middle panel, CA1.CD2+Ad), and the PEGylated CA1.CD2 (right panel, PEG-CA1.CD2). The Western blots experiments were carried out with 0.5 mg of PEGylated CA1.CD2 (PEG-CA1.CD2) or unmodified CA1.CD2 (CA1.CD2). Arrow indicates the position of the detected protein bands 19 hours post injection.
Rabbits were i.p. injected with Gd-CA1.CD2 and its pegylated variants. The agents (CA1.CD2) were mixed with adjuvant or with buffer saline and injected at a dose of 3.0 nmole/kg according to the standard protocol for the antibody production. […]

B1: CA1.CD2: designed Gd^3+-binding protein, domain 1 of rat CD2 with ligand residues Glu15, Glu56, Asp58, Asp62, Asp64 (protein)
chain: RDSGTVWGALGHGIELNIPNFQMTDDIDEVRWERGSTLVAEFKRKMKPFLKSGAFEIDANGDLDIKNLTRDDSGTYNVTVYSTNGTRILNKALDLRILE
hydration number (water number in the coordination shell) [1]: 2.1 and 2
Tb^3+ life time ([1]; in D2O): 1,679 μs
Tb^3+ life time ([1]; protein complex in H2O): 859 μs
antibody production (rabbits; with adjuvant): resulted in immuno-responses
antibody production (rabbits; without adjuvant, double dose immunization, 3.0 nmole/kg i.p.): did not lead to antibody production
